From patent WO2018038096A1

Columns and labels:
[1] = target: HA of A/California/04/2009 (H1N1pdm09) (influenza A virus A/California/04/2009 (H1N1pdm09)); assay: cell-based or functional assay
[2] = target: HA of Perth/16 (H3N2) virus (influenza A virus A/Perth/16/2009 (H3N2)); assay: cell-based or functional assay
[3] = target: HA of A/California/04/2009 (H1N1pdm09) (influenza A virus A/California/04/2009 (H1N1pdm09))
[4] = target: three viruses, CA04, Egypt, and Anhui/1; assay: cell-based or functional assay
[5] = target: recombinant HA protein of A/California/07/2009 (H1N1pdm09) (influenza A virus A/California/07/2009 (H1N1pdm09))
[6] = target: recombinant HA protein of A/Netherland/219/2003 (H7N7) (influenza A virus A/Netherland/219/2003 (H7N7))
[7] = target: recombinant HA protein of Egypt (H5N1 type) (influenza A virus, 'Egypt' (H5N1))
[8] = target: recombinant HA protein of A/Perth/16/2009 (H3N2) (influenza A virus A/Perth/16/2009 (H3N2))

Molecule	IC 50, neutralization test 1 (Pre), CPE on MDCK cells [1] [µg/mL]	IC 50, neutralization test 1 (Pre), CPE on MDCK cells [2] [µg/mL]	apparent rate constant k obs, fold over that of S9-1-10/5-1 [3] [fold]	IC 50, neutralization test 2 (Post), CPE on MDCK cells [4] [µg/mL]	Kd [5] [nM]	Kd [6] [nM]	Kd [7] [nM]	Kd [8] [nM]
CR9114 (antibody)	7.4	25	11.6					
S9-1-10/5-1 (antibody, V domains shown) VH: QLHLQESGPGLLKPSATLSLTCTVSGGSMNNYYWSWVRQAPGKGLEWIGYIFHSGSTNYSPPLKSRVTISIDTATNQFFLRLNSVTAADTAVYYCARMSRGVFSSSRFFGLDVWGRGTAVAVSS VL: EIVLTQSPATLSVSPGERATLSCRASQSVASNLAWYQQKPGQAPRLLISAASTRATDIPARFSGSGSGTEFTLTISSLQSEDFAVYYCQQYNNWLSFTFGPGTKVDMKG				0.55 to 8.8	0.0085	0.9	0.14	34
